Reference: paper PMC3462190, “A Peptidic Unconjugated GRP78/BiP Ligand Modulates the Unfolded Protein Response and Induces Prostate Cancer Cell Death” (PLoS ONE, 2012)
Where no end group is shown, it is not given here.

B1: Bag-1 peptide: internal sequence of 68 amino acids of Bag-1 (Bag1-L 202–269), HA-tagged, expressed from pcDNA3 (peptide)
chain: TPLSALGIQDGCRVMLIGKKNSPQEEVELKKLKHLEKSVEKIADQLEELNKELTGIQQGFLPKDLQAE
modifications: also: HA tag, end not given here

Columns and labels:
Assay type in all cases: cell-based
[1] = system: DU145 cells; assay: Clonogenic assay; settings: 19-mer expressing vector vs vector control; at least three experiments
Procedure: (§1) Figure 6 Selectivity of action of the Bag-1 peptide. A Amino acid sequence of the 19mer peptide and its deletion mutants. B GST pull-down assay performed incubating 400 µg of 22Rv.1 cell lysate and 25 µg of GST-fused deletion mutants of the 19mer peptide. After the pull-down experiment, Western blots were carried out with anti-GRP78/BiP and GST antibodies. C. Fluorescence polarization (FP) assays with a 10 nM FITC-labeled 7-mer Bag-1 peptide and dilutions of the GST-fused substrate binding domain of GRP78 in 60 µl of Tris-GSH buffer (50 mM Tris, 10 mM reduced glutathione and 0.1% BSA, pH 8.0). Triplicate samples were measured after 5 h of incubation at room temperature with an Infinite F-200 reader (Tecan) with excitation at 490 nm and emission at 535 nm. Binding constants were determined from three independent experiments using non-linear regression in Sigma Plot 10.0. D. Competition assays with a complex of 10 nM of FITC-labeled Bag-1 7-mer peptide and 0.75 mg/ml GST-fused GRP78 substrate binding domain was measured against a dilution series from 100 µM to 0.1 nM of wild-type Bag-1 7-mer peptide (filled line) or triple mutant peptide (dotted line) in 40 µl of Tris-GSH buffer. FITC-peptide and the FITC-peptide-protein complex were used as controls. Fluorescence polarization was determined as described above and IC50 values were determined in Sigma Plot. E. Clonogenic assay in 22Rv.1 cells with pcDNA3 based vectors coding for the N-terminal Bag-1 peptide (positive control), the 19mer and the 19mer mutant fragments as well as the empty expression vector (negative control). Cells were transfected with the indicated constructs and selected in medium containing neomycin. The colonies were stained and quantified. Shown as bar chats are the mean ± SEM of at least three independent experiments with three different plasmid preparations. (*p<0.05). F. In vivo luciferase refolding assay was performed in HEK-293 cells transfected at 70% confluency with 2 µg β-actin-fire fly luciferase construct, 3 µg pcDNA3 empty vector as control or pCMV6-GRP78, 6 µg pcDNA3.1-HA-19-mer or 19-mer mutant peptide and 0.5 µg Renilla luciferase construct to determine the transfection efficiency. Shown as bar charts is the mean of at least three different experiments ± SEM (*p<0.05). G. Clonogenic assay with the indicated malignant (LNCaP, DU145, PC3) and benign (BPH1, PNT2, RWPE1) prostate cell lines transfected with the vector control (black bars) and a vector expressing the 19-mer peptide (white bars). Shown are the mean ± SD of at least three different experiments performed with three different plasmid preparations (*p<0.05). H. Western blot analysis of cell lysates derived from the prostate cancer cells used for the colony forming assay with specific antibodies against GRP78 and β-actin.

[2] = system: RWPE-1 cells; assay: Clonogenic assay; settings: benign prostate cells, 19-mer vector vs control; at least three experiments
Procedure: as §1

[3] = system: PNT-2 cells; assay: Clonogenic assay; settings: benign prostate cells, 19-mer vector vs control; at least three experiments
Procedure: as §1

[4] = system: PC3 cells; assay: Clonogenic assay; settings: 19-mer expressing vector vs vector control; at least three experiments
Procedure: as §1

[5] = system: LNCaP cells; assay: Clonogenic assay; settings: 19-mer expressing vector vs vector control; at least three experiments
Procedure: as §1

[6] = system: 22Rv.1 cells; assay: ER-stress induced apoptosis markers, Western blot in 22Rv.1 cells
Procedure: Unless otherwise stated, stable transfection was carried out in 22Rv.1 or BPH-1 cells with 10 µg of plasmid DNA using FuGene 6™ (Roche Diagnostics Mannheim, Germany) Stably transfected 22Rv.1 cells were selected with 0.8 mg/ml while BPH-1 cell clones were selected with 1.2 mg/ml G418. LNCaP, PC3, DU145, PNT-2 and RWPE-1 cell clones were selected with 1 mg/ml G418. Specific downregulation of GRP78 expression was achieved by transfecting siRNA-duplexes (GRP78∶5′-[…]-3′) twice in 72 h using HiPerfect™ (Qiagen Hilden, Germany). siRNA against GFP (5′-[…]-3′) was used as a control. Western blot analysis was performed as previously described.
Figure 3 The Bag-1 peptide modulates the UPR and sensitizes 22Rv.1 cells to ER-stress. A. UPR modulation upon Bag-1 peptide overexpression. Pooled clones of 22Rv.1 cells transfected with pcDNA3.1-HA-Bag-1 68 amino acid peptide or an empty expression vector were treated with 300 nM thapsigargin (TG) for the indicated time points. Cells were lysed and subjected to Western blot analysis using the indicated antibodies or phospho-specific antibodies. B. The Bag-1 peptide sensitizes 22Rv.1 cells to ER-stress induced apoptosis. Pooled clones of 22Rv.1 transfected with the Bag-1 peptide or the empty expression vector were treated with thapsigargin (TG) or glucose-starved (GS) for 24 h. The cells were lysed and subjected to Western blot analysis using anti-PARP and caspase 4 specific antibodies. Anti-HA antibody was used to detect the HA-Bag-1 peptide. […] C. […] Pooled clones of 22Rv.1 expressing HA-tagged Bag-1 peptide or an empty expression vector were transfected with GRP78/BiP siRNA or control GFP siRNA. The cells were lysed and Western blot was carried out with anti-PARP, anti-GRP78 and anti-HA antibodies. β-actin antibody was used to determine the level of protein loaded on the gel.
Supplementary file pone.0045690.s005.tif: Figure S5 Knock-down of CHOP impairs the Bag-1 peptide-mediated increase in apoptosis. The action of the Bag-1 peptide is dependent on CHOP. Pooled clones of 22Rv.1 expressing an empty expression vector (lane 1 to 4) or an HA-tagged Bag-1 peptide (lane 5 to 8) were transfected with control GFP siRNA (lane 1–2 and 5–6) or CHOP siRNA (lane 3–4 and 7–8). After treatment with 300 nM thapsigargin (TG) for 24 h, cells were lysed and Western blot was carried out with anti-PARP, anti-CHOP and anti-HA antibodies. β-actin antibody was used to determine the level of protein loaded on the gel. (TIF) Click here for additional data file.
Supplementary file pone.0045690.s006.tif: Figure S6 Overexpression of the Bag-1 peptide increases Capase-7 cleavage and JNK expression. 22Rv.1 cells stably transfected with an empty vector control (lane 1–2) or a plasmid encoding an HA-tagged Bag-1 peptide (lane 3–4) were treated with 300 nM thapsigargin (TG) for 24 h and harvested for Western blot anaysis. Specific antibodies against JNK (Cell Signaling, Frankfurt am Main, Germany), cleaved Caspase-7 (Cell Signaling, Frankfurt am Main, Germany), HA (HAA.11 clone 16B12, Covance, Munich, Germany) or β-actin (Sigma, Steinheim, Germany) were used in the experiment. (TIF) Click here for additional data file.

Molecule | DU145 growth in clonogenic assay [1] | RWPE-1 growth in clonogenic assay [2] | PNT-2 growth in clonogenic assay [3] | PC3 growth in clonogenic assay [4] | LNCaP growth in clonogenic assay [5] | PARP cleavage, GFP siRNA control, no ER stress ([6]; 22Rv.1 cells expressing Bag-1 peptide vs vector, no ER stress) | PARP cleavage, GRP78/BiP knock-down ([6]; 22Rv.1 cells transfected with GRP78/BiP siRNA, Bag-1 peptide vs vector) | caspase 4 and PARP cleavage, no ER stress ([6]; 22Rv.1 cells, no stressor, vs vector control) | CHOP expression and PARP cleavage ([6]; 22Rv.1 cells, thapsigargin 300 nM 24 h, Bag-1 peptide vs vector control) | JNK expression and caspase 7 cleavage ([6]; 22Rv.1 cells, thapsigargin 300 nM 24 h, vs vector control) | PARP cleavage after CHOP siRNA knockdown ([6]; 22Rv.1 cells, thapsigargin 300 nM 24 h, both vector and peptide cell lines) | caspase 4 expression and PARP cleavage, with ER stress ([6]; 22Rv.1 cells, thapsigargin or glucose starvation 24 h, vs vector control)
19-mer: Bag-1L 202–220 (TPLSALGIQDGCRVMLIGK; not fully specified) | inhibited growth | not growth inhibited | not growth inhibited | inhibited growth | inhibited growth | – | – | – | – | – | – | –
B1 | – | – | – | – | – | increase in the PARP cleavage even in the absence of ER stress | no difference in the cleavage pattern was further observed | both caspase 4 and PARP cleavage was increased | further enhanced in the cells expressing the Bag-1 peptide | enhanced expression of JNK and caspase 7 cleavage | PARP cleavage was reduced in both cells line | a tremendous increase in caspase 4 expression and PARP cleavage
